According to article PMC3644619 (Gene, 2008):

Experiments:
[1] = target: SF1 (steroidogenic factor 1) (UniProt Q04752 1-461); test: two-hybrid
[2] = target: T1, hormone-binding domain (HBD) of ERR1 (UniProt P11474 1-423); test: two-hybrid
T1 sequence (looked up): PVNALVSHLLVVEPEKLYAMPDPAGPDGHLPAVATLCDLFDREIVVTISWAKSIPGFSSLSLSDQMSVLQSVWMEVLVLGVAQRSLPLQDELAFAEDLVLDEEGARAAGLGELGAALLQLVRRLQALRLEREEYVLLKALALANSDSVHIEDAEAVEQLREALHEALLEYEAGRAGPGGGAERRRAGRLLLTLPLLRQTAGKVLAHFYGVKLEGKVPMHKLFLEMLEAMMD

Sequence of SF1 (steroidogenic factor 1) (Q04752 whole entry, the tested form may be a part): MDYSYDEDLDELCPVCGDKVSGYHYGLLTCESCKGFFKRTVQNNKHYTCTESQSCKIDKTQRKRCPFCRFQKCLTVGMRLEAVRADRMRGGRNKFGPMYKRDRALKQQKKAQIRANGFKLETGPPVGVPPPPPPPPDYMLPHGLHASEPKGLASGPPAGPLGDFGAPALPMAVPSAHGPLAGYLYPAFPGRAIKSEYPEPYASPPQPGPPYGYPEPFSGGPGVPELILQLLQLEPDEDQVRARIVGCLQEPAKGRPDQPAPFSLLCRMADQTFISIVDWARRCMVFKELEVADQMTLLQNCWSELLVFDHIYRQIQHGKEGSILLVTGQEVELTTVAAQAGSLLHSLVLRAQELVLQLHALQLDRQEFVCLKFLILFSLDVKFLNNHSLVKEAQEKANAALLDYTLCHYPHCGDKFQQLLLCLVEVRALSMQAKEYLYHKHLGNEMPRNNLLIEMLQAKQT

fold increase of affinity compared to fl PNRC (two-hybrid β-galactosidase) [1]: > 10 fold
fold increase of affinity compared to fl PNRC (two-hybrid β-galactosidase) [2]: > 10 fold
B1: PNRC1d (natural protein)
chain: not shown
